According to patent publication US20150246136A1 (Bayer, published 2015):

Target: Mesothelin (SwissProt reference Q13421-3) (Homo sapiens, UniProt Q13421 37-622)
Assay: cell-based or functional assay

Row | Binder | IC50 (nM), HT29 meso+ cells, MTT proliferation assay
1 | Example 131, conjugate of anti-mesothelin antibody MF-Ta (antibody, human IgG1, lambda, V domains shown, toxophore-linker on Cys sulfur, sites not given) VH: QVELVQSGAEVKKPGESLKISCKGSGYSFTSYWIGWVRQAPGKGLEWMGIIDPGDSRTRYSPSFQGQVTISADKSISTAYLQWSSLKASDTAMYYCARGQLYGGTYMDGWGQGTLVTVSS VL: DIALTQPASVSGSPGQSITISCTGTSSDIGGYNSVSWYQQHPGKAPKLMIYGVNNRPSGVSNRFSGSKSGNTASLTISGLQAEDEADYYCSSYDIESATPVFGGGTKLTVLG | 0.09 nM
2 | Example 133, conjugate of anti-mesothelin antibody MF-Ta (antibody, human IgG1, lambda, V domains shown, toxophore-linker on Cys sulfur, sites not given) VH: QVELVQSGAEVKKPGESLKISCKGSGYSFTSYWIGWVRQAPGKGLEWMGIIDPGDSRTRYSPSFQGQVTISADKSISTAYLQWSSLKASDTAMYYCARGQLYGGTYMDGWGQGTLVTVSS VL: DIALTQPASVSGSPGQSITISCTGTSSDIGGYNSVSWYQQHPGKAPKLMIYGVNNRPSGVSNRFSGSKSGNTASLTISGLQAEDEADYYCSSYDIESATPVFGGGTKLTVLG | 2.1 nM
3 | Example 135, conjugate of anti-mesothelin antibody MF-Ta (antibody, human IgG1, lambda, V domains shown, toxophore-linker on Cys sulfur, sites not given) VH: QVELVQSGAEVKKPGESLKISCKGSGYSFTSYWIGWVRQAPGKGLEWMGIIDPGDSRTRYSPSFQGQVTISADKSISTAYLQWSSLKASDTAMYYCARGQLYGGTYMDGWGQGTLVTVSS VL: DIALTQPASVSGSPGQSITISCTGTSSDIGGYNSVSWYQQHPGKAPKLMIYGVNNRPSGVSNRFSGSKSGNTASLTISGLQAEDEADYYCSSYDIESATPVFGGGTKLTVLG | 0.25 nM
4 | Example 136, conjugate of anti-mesothelin antibody MF-Ta (antibody, human IgG1, lambda, V domains shown, toxophore-linker on Lys NH, sites not given) VH: QVELVQSGAEVKKPGESLKISCKGSGYSFTSYWIGWVRQAPGKGLEWMGIIDPGDSRTRYSPSFQGQVTISADKSISTAYLQWSSLKASDTAMYYCARGQLYGGTYMDGWGQGTLVTVSS VL: DIALTQPASVSGSPGQSITISCTGTSSDIGGYNSVSWYQQHPGKAPKLMIYGVNNRPSGVSNRFSGSKSGNTASLTISGLQAEDEADYYCSSYDIESATPVFGGGTKLTVLG | 1.6 nM
5 | Example 138, conjugate of anti-mesothelin antibody MF-Ta (antibody, human IgG1, lambda, V domains shown, toxophore-linker on Cys sulfur, sites not given) VH: QVELVQSGAEVKKPGESLKISCKGSGYSFTSYWIGWVRQAPGKGLEWMGIIDPGDSRTRYSPSFQGQVTISADKSISTAYLQWSSLKASDTAMYYCARGQLYGGTYMDGWGQGTLVTVSS VL: DIALTQPASVSGSPGQSITISCTGTSSDIGGYNSVSWYQQHPGKAPKLMIYGVNNRPSGVSNRFSGSKSGNTASLTISGLQAEDEADYYCSSYDIESATPVFGGGTKLTVLG | 0.3 nM
6 | Example 134, conjugate of anti-mesothelin antibody MF-Ta (antibody, human IgG1, lambda, V domains shown, toxophore-linker on Cys sulfur, sites not given) VH: QVELVQSGAEVKKPGESLKISCKGSGYSFTSYWIGWVRQAPGKGLEWMGIIDPGDSRTRYSPSFQGQVTISADKSISTAYLQWSSLKASDTAMYYCARGQLYGGTYMDGWGQGTLVTVSS VL: DIALTQPASVSGSPGQSITISCTGTSSDIGGYNSVSWYQQHPGKAPKLMIYGVNNRPSGVSNRFSGSKSGNTASLTISGLQAEDEADYYCSSYDIESATPVFGGGTKLTVLG | 0.03 nM
7 | Example 137, conjugate of anti-mesothelin antibody MF-Ta (antibody, human IgG1, lambda, V domains shown, toxophore-linker on Cys sulfur, sites not given) VH: QVELVQSGAEVKKPGESLKISCKGSGYSFTSYWIGWVRQAPGKGLEWMGIIDPGDSRTRYSPSFQGQVTISADKSISTAYLQWSSLKASDTAMYYCARGQLYGGTYMDGWGQGTLVTVSS VL: DIALTQPASVSGSPGQSITISCTGTSSDIGGYNSVSWYQQHPGKAPKLMIYGVNNRPSGVSNRFSGSKSGNTASLTISGLQAEDEADYYCSSYDIESATPVFGGGTKLTVLG | 0.04 nM
8 | Example 132, conjugate of anti-mesothelin antibody MF-Ta (antibody, human IgG1, lambda, V domains shown, toxophore-linker on Lys NH, sites not given) VH: QVELVQSGAEVKKPGESLKISCKGSGYSFTSYWIGWVRQAPGKGLEWMGIIDPGDSRTRYSPSFQGQVTISADKSISTAYLQWSSLKASDTAMYYCARGQLYGGTYMDGWGQGTLVTVSS VL: DIALTQPASVSGSPGQSITISCTGTSSDIGGYNSVSWYQQHPGKAPKLMIYGVNNRPSGVSNRFSGSKSGNTASLTISGLQAEDEADYYCSSYDIESATPVFGGGTKLTVLG | 3.3 nM
